Target: L1-70-Myc
Experiment: ELISA; purified L1-70-Myc coated in PBS on 96-well plates; purified Top1-HA at 0.1, 0.5, 1, 5 and 10 nM, 2 h at 37 °C; detection with rabbit anti-HA, TMB

B1: Top1-HA (enzyme)
chain: MSGDHLHNDSQIEADFRLNDSHKHKDKHKDREHRHKEHKKDKDKDREKSKHSNSEHKDSEKKHKEKEKTKHKDGSSEKHKDKHKDRDKERRKEEKIRAAGDAKIKKEKENGFSSPPRIKDEPEDDGYFAPPKEDIKPLKRLRDEDDADYKPKKIKTEDIKKEKKRKSEEEEDGKLKKPKNKDKDKKVAEPDNKKKKPKKEEEQKWKWWEEERYPEGIKWKFLEHKGPVFAPPYEPLPESVKFYYDGKVMKLSPKAEEVATFFAKMLDHEYTTKEIFRKNFFKDWRKEMTNDEKNTITNLSKCDFTQMSQYFKAQSEARKQMSKEEKLKIKEENEKLLKEYGFCVMDNHRERIANFKIEPPGLFRGRGNHPKMGMLKRRIMPEDIIINCSKDAKVPSPPPGHKWKEVRHDNKVTWLVSWTENIQGSIKYIMLNPSSRIKGEKDWQKYETARRLKKCVDKIRNQYREDWKSKEMKVRQRAVALYFIDKLALRAGNEKEEGETADTVGCCSLRVEHINLHPELDGQEYVVEFDFPGKDSIRYYNKVPVEKRVFKNLQLFMENKQPEDDLFDRLNTGILNKHLQDLMEGLTAKVFRTYNASITLQQQLKELTAPDENVPAKILSYNRANRAVAILCNHQRAPPKTFEKSMMNLQSKIDAKKDQLADARRDLKSAKADAKVMKDAKTKKVVESKKKAVQRLEEQLMKLEVQATDREENKQIALGTSKLNYLDPRITVAWCKKWGVPIEKIYNKTQREKFAWAIDMTDEDYEF
B1 gave a concentration of Top1-HA at saturation of 1 nM.

— article PMC8748658
